In publication PMC2655686:

Molecular target: TRF2BH (basic region + TRFH) (UniProt Q15554 45-289)
Assay: EMSA

TRF2BH (basic region + TRFH), sequence (Q15554 45-289): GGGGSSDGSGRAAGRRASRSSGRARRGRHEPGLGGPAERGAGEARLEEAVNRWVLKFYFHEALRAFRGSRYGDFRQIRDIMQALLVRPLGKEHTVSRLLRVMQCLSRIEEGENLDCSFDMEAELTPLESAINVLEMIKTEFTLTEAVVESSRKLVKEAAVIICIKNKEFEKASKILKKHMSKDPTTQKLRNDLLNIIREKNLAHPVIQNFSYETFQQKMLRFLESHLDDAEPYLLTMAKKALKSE

**Q.** Does TTAGGGTTAGGGTTAGGGTTAGGGTTAGGGTTAGGGTTAGGG (structured_DNA) [T7] bind?
**A.** Result: binds
